From patent WO2021175954A1 (dated 2021)
Substitutions are numbered along the chain they refer to. “And” between values parts separate entries of the source, which are not always exact repeats. Identical values can stand only once. Each block holds one binder with its values, some of them ahead of it.

Experiments:
[1] = target: T1, human BTNL8 expressed on cells (HEK-BTNL8 transductants); also endogenous on CaCo-2, HL-60 and primary gut … (human, UniProt Q6UX41 18-500); assay: flow cytometry on HEK-BTNL8 cells, chimeric format
T1 construct: also called Homo sapiens butyrophilin like 8
T1 sequence: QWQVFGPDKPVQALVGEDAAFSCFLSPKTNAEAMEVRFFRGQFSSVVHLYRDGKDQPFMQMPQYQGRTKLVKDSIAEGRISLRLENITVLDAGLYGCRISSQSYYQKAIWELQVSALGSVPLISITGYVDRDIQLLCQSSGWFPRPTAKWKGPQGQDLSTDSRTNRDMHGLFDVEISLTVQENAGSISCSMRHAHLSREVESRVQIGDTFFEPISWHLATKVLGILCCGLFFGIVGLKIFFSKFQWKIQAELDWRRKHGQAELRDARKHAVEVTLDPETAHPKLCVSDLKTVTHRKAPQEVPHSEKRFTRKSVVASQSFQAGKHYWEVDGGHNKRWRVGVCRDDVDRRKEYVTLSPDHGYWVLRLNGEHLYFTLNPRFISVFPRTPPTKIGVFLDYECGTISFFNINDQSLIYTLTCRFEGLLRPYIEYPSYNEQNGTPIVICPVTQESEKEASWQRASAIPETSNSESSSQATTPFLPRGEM

[2] = target: T2, human BTNL8/BTNL3 heterodimer expressed on HEK-293T cells (human, UniProt Q6UXE8 18-466); assay: cell-based or functional assay
T2 sequence 1: T1 sequence
T2 sequence 2: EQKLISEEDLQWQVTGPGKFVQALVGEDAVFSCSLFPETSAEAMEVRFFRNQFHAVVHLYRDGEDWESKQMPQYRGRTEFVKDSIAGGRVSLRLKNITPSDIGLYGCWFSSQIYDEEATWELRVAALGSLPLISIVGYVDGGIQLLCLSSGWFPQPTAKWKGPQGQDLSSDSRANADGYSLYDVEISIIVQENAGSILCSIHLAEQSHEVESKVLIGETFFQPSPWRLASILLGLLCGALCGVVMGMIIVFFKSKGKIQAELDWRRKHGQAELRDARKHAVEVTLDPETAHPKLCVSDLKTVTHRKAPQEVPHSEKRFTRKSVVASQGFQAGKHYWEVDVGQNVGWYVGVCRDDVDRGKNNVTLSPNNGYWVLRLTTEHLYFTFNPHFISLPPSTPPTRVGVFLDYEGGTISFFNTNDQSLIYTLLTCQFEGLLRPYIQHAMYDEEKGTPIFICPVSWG

[3] = target: T2, human BTNL8/BTNL3 heterodimer expressed …; assay: flow cytometry on HEK-BTNL3/BTNL8 cells, chimeric format
[4] = target: T3, human BTNL3 with N-terminal c-Myc tag expressed on HEK-293T cells (human, UniProt Q6UXE8 18-466); assay: flow cytometry on HEK-BTNL3 cells
T3 construct: whole, on cells; also called HEK-BTNL3; myc-tagged BTNL3
T3 sequence: T2 sequence 2

[5] = target: T4, recombinant human BTNL8 protein (BLI) (human, UniProt Q6UX41 18-238, limits assumed); assay: BLI, recombinant human BTNL8
T4 construct: it may be the same rhBTNL8-Fc as in the Luminex assay; also called hBTNL8; recombinant BTNL8 protein
T4 sequence: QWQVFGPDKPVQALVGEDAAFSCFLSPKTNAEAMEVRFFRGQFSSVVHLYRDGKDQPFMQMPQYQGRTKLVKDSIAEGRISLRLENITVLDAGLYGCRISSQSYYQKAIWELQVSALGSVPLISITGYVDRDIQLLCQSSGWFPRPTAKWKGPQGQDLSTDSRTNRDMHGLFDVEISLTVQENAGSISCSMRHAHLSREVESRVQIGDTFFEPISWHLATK

B1: chimeric anti-BTNL8 mAb mAbX4 (antibody, V domains shown)
VH: EVQLQQSGAELVRPGASVKLSCTASGFNIKDDYMHWVKQRPEQALEWIGRIDPANGNTKYVPKFQDKATITADTSSNTASLQLSSLTSEDTAVYYCARWGIYDGYYYTMDSWGQGTSVTVSS
VL: QNVLIQSPAIMSASPGEKVTITCSASSSVSYMHWFQQKPGTSPKLWIYSTSNLASGVPARFSGSGSGTSYSLTISRMEAADAATYFCQQRSRYPYTFGGGTKLEIK
EC50 [1]: < 0.5 µg/mL and < 3.3 nM
IC50/EC50 of inhibition of Vy4V51TCR reporter cell activation (NFAT-GFP, CD69, TCRV51) [2]: < 0.5 µg/mL and < 3.3 nM
EC50 [3]: < 0.5 µg/mL and < 3.3 nM

B4: chimeric anti-BTNL8 mAb mAbX5 (antibody, V domains shown)
VH: EVQLQQSGAELVRPGASIKLSCTASGFNIEDDYMHWVRQRPVQGLEWIGRIDPANGNANFAPKFQDKATITADTSSNTAYLQLSSLASEDTAVYYCTREGGLYYGNSDAMDYWGQGTSVTVSS
VL: B1 VL with N2I, I5T, S26R, H33Q, F35I, A59D, A80E, F86Y, Y95R
EC50 [1]: < 0.5 µg/mL and < 3.3 nM
IC50/EC50 of inhibition of Vy4V51TCR reporter cell activation (NFAT-GFP, CD69, TCRV51) [2]: < 0.5 µg/mL and < 3.3 nM
EC50 [3]: < 0.5 µg/mL and < 3.3 nM

B6: chimeric anti-BTNL8 mAb mAbX1 (antibody, V domains shown)
VH: QVQLQQSGAELARPGASVKLSCKASGYIFTSYGIGWVKQRTGQGLEWIGEVYPRNGHSYYNEKFKGKATLTADRSSSTAYMQLSSLTSEDSAVYFCARGGTGSQLDYWGQGTTLTVSS
VL: DIQMTQSPASLSASVGETVTITCRASENIYSYLAWYQQKQGKSPHLLVYNAKTLAEGVPSRFSGSGSGTQFSLRISSLQPEDFGNYYCQHHYGTYTFGGGTKLEIK
notes: also called mAbXl
EC50 [1]: < 0.5 µg/mL and < 3.3 nM
IC50/EC50 of inhibition of Vy4V51TCR reporter cell activation (NFAT-GFP, CD69, TCRV51) [2]: < 0.5 µg/mL and < 3.3 nM
EC50 [3]: < 0.5 µg/mL and < 3.3 nM

B8: chimeric anti-BTNL8 mAb mAbX2 (antibody, V domains shown)
VH: EVQLQQSGAEFVRPGASVKMSCTGSGLNIEDDYMHWVKQRPEQGLEWIGRIDPANGNTKYGPKFQDKATITADTSSNTAYLQLSSLTAEDTAVYYCTRNYYDGSLYYFDYWGQGTTLTVSS
VL: QIVLTQSPAIMSASLGEEITLTCSASSSVSYMHWYQQKSGTSPKLLIYSTSNLASGVPSRFSGSGSGTFYSLTISSVEAEDAADYYCHQWSRYPYTFGGGTKLEIK
EC50 [1]: < 0.5 µg/mL and < 3.3 nM
IC50/EC50 of inhibition of Vy4V51TCR reporter cell activation (NFAT-GFP, CD69, TCRV51) [2]: < 0.5 µg/mL and < 3.3 nM
EC50 [3]: < 0.5 µg/mL and < 3.3 nM

The remaining lines, values ahead:

binding result [4]: no binding
B2: reference murine antibody mAb X5 (antibody, V domains shown)
VH: B4 VH
VL: B1 VL with N2I, I5T, S26R, H33Q, F35I, A59D, A80E, F86Y, Y95R
notes: Murine monoclonal antibody, tested as hybridoma supernatant or purified from it

binding result [4]: no binding
B3: reference murine antibody mAb X4 (antibody, V domains shown)
VH: B1 VH
VL: B1 VL
notes: as for B2

binding result [5]: no binding
B5: chimeric anti-BTNL8 mAb mAbX3 (antibody, V domains shown)
VH: EVQLQQSGAELVRPGASVKLSCTASGFNIKDDYMHWVKQRPEQGLEWIGRIDPANANTKYAPKFQDKATITADTSSNTAYLHLSSLTSEDSAVYYCARNYYDGSPYYFDYWGQGTTLTVSS
VL: NIVMTQSPKSMSMSVGERVTLTCKASENVVTYVSWYQQKPEQSPKLLIYGASNRYTGVPDRFTGSGSATDFTLTISSVQAEDAAGYYCHQWSRYPYTFGGGTKLEIK

binding result [4]: no binding
B7: reference murine antibody mAb X1 (antibody, V domains shown)
VH: B6 VH
VL: B6 VL
notes: as for B2

binding result [4]: no binding
B9: reference murine antibody mAb X2 (antibody, V domains shown)
VH: B8 VH
VL: B8 VL
notes: as for B2
